Experimental data from publication PMC6604391.
Where two headings read alike, the source gives them in different places.

Tests used:
casein [1] = molecular target: casein
casein [2] = molecular target: casein; remark: listed apart in the source

“SPPS, serine alkaline protease from Pleurotus sajor-caju strain CTM10057 (enzyme)” showed a Km of casein hydrolysis (Lineweaver-Burk, pH 9.5, 70 °C) (casein [1]) of 0.275 mg/mL and a Km of casein hydrolysis (Lineweaver-Burk, pH 9.5, 70 °C) (casein [2]) of 0.295 mg/mL.
